Experimental data: the RNAGym collection of RNA variant scans (doi:10.1073/pnas.2313332121)
This sample holds only a part of the variants without activity.

B1: TPR 5TU (parent)
chain: GGAUCUUCUCGAUCUAACAAAAAAGACAAAUCUGCCACAAAGCUUGAGAGCAUCUUCGGAUGCAGAGGCGGCAGCCUUCGGUGGCGCGAUAGCGCCAACGUUCUCAACUAUGACACGCAAAACGCGUGCUCCGUUGAAUGGAGUUUAUCAUG

Variants of: B1
Assay: polymerase ribozyme fitness, log enrichment relative to wild type (log ratio); higher = more active; in vitro selection for triplet polymerase activity
Procedure, shortened: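 To select mutant libraries of each subunit of a heterodimeric triplet polymerase ribozyme, built by PCR and transcribed, each was annealed with a biotinylated primer, partner subunit and triplets, then incubated frozen at −7 °C. Extended constructs were gel-excised, captured on streptavidin beads and amplified by RT-PCR, in one round carried out in triplicate. Illumina sequencing of input and output libraries kept genotypes with ≥10 input reads and ≥1 read per output. Fitness is the base-2 logarithm of genotype enrichment relative to wild-type enrichment, from inverse-variance-weighted replicate averages.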

Going from GGAUCUUCUCGAUCUAACAAAAAAGACAAAUCUGCCACAAAGCUUGAGAGCAUCUUCGGAUGCAGAGGCGGCAGCAUUCGGUGGCACGUUAGCGCCAACGUUCUCAACUAUGACACGCAAAACGCGUGCUCCCUUGAAUGGAGUGUAUCAUG to GGAUCUUCUCGAUCUAACAAAAAAGACAAAUCUGCCACAAAGCUUGAGAGCAUCUUCGGAUGCAGAGGCGGCAGCUUUCGGUGGCGCGAUAGCGUUAACGUUCUCAACUAUGACACGCAAAACUCGUGCUCCGUUGAAUGGAGUUUAUCAUG, the “polymerase ribozyme fitness (log ratio)” value rises from at most -4.2 to -1.17.

First: GGAUCUUCUCGAUCUAACAAAAAAGACAAAUCUGCCACAAAGCUUGAGAGCAUCUUCGGAUGCAGAGGCGGCAGCUUUCGGUGGCCCGAUAGCGCCAACGUUCUCAACUAUGACACGCAAAACGCGUGCUCCGUUGAAUGGAGUUUAUCAUG
Second: GGAUCUUCUCGAUCUAACAAAAAAGACAAAUCUGCCACAAAGCUUGAGAGCAUCUUCGGAUGCAGAGGCGGCAGCUUUCGGUGGCGCGAUAGCGCCAACGGUCUCAACUAUGACACGCAAAACACGUGCUCCGUUGAAUGGAGUUUAUCAUG
The “polymerase ribozyme fitness (log ratio)” value of the first is lower: -0.716 for the first, -0.411 for the second.

Going from GGAUCUUCUCGAUCUAACAAAAAAGACAAAUCUGCCACAAAGCUUGAGAGCAUCUUCGGAUGCAGAGGCGGCAGCGUUCGGUGGCGAGAUAGCGCCAACGUUCUCAACUAUGACACGCAAAACGCGUGCUCCGUUGAAUGGAGCUUAUCAUA to GGAUCUUCUCGAUCUAACAAAAAAGACAAAUCUGCCACAAAGCUUGAGAGCAUCUUCGGAUGCAGAGGCGGCAGCUUUCGGUGGCGCGAUAGCGCCAACGUUCUCAACUAUGACACGCAAAACGCGUGCUCCGUUGAAUGGAGUUUUUCAUG, the “polymerase ribozyme fitness (log ratio)” value rises from at most -4.2 to 0.639.

Going from GGAUCUUCUCGAUCUAACAAAAAAGACAAAUCUGCCACAAAGCUUGAGAGCAUCUUCGGAUGCAGAGGCGGCAGCAUUCGGUGGCGCGAUACCGCCAUCGUUCUCAACUAUGACACGCAAAACGCGUGCUCCGUUGAAUGGUGUUUAUCAUG to GGAUCUUCUCGAUCUAACAAAAAAGACAAAUCUGCCACAAAGCUUGAGAGCAUCUUCGGAUGCAGAGGCGGCAGCUUUCGGUGGCGCGCUAGCGCCAACGUUCUCAACUAUGACACGGAAAACGCGUGCUCCGUUGAAUGGAGUUUAUCAUG, the “polymerase ribozyme fitness (log ratio)” value rises from -2.32 to -1.8.

Going from GGAUCUUCUCGAUCUAACAAAAAAGACAAAUCUGCCACAAAGCUUGAGAGCAUCUUCGGAUGCAGAGGCGGCAGCAUUCGGUGGCGCGAUAGCCCCAACGUUCUCAACUAUGACACGCAAAACGCGUGCUCCGUUGAAUGGAGUUUAUCAUG to GGAUCUUCUCGAUCUAACAAAAAAGACAAAUCUGCCACAAAGCUUGAGAGCAUCUUCGGAUGCAGAGGCGGCAGCUUUCGGUGGCGCGAUAGGGCCAACGUUCUCAACUAUGACACGCAAAACGCGUGCUCCGUUGAAUGGAGUUUAUCAUG, the “polymerase ribozyme fitness (log ratio)” value falls from -0.703 to -2.8.

Compared with GGAUCUUCUCGAUCUAACAAAAAAGACAAAUCUGCCACAAAGCUUGAGAGCAUCUUCGGAUGCAGAGGCGGCAGCUUUCGGUGGCGCGAUAGCGCCAACGUUCUCAACUAUGACACGCAAAACGCGUUCUCCGUUGAAUGGAGUUUAUCAUG, GGAUCUUCUCGAUCUAACAAAAAAGACAAAUCUGCCACAAAGCUUGAGAGCAUCUUCGGAUGCAGAGGCGGCAGCUUUCGGUGGCGCGAUAGCGCCAACGUGCUCAACUAUGACACGCAAAACGCGUGCUCCGUUGAAUGGAGUUUAUCAUG is higher in “polymerase ribozyme fitness (log ratio)” value: -3.27 for the first, -2.89 for the second.

Compared with GGAUCUUCUCGAUCUAACAAAAAAGACAAAUCUGCCACAAAGCUUGAGAGCAUCUUCGGAUGCAGAGGCGGCAGCAUUCGGUUGCGCGAUAGCGCCAAUGUUCUCAACUAUGACACGCAAAUCGCGUGCUCCGUUGAAUGGAGUUUAUCAUG, GGAUCUUCUCGAUCUAACAAAAAAGACAAAUCUGCCACAAAGCUUGAGAGCAUCUUCGGAUGCAGAGGCGGCAGCUUUCGGUGGCGCGAUAGCGCCAACGUUAUCAACUAUGACACGCAAAACGCGUGCUCCGUUGAAUGCAGUUUAUCAUG is higher in “polymerase ribozyme fitness (log ratio)” value: at most -4.2 for the first, -4.16 for the second.

GGAUCUUCUCGAUCUAACAAAAAAGACAAAUCUGCCACAAAGCUUGAGAGCAUCUUCGGAUGCAGAGGCGGCAGCGUUCGGUGGUGCGAUAGCGCCAACGUUCUCAACUAUGACACGCAAAACGCGUGCUCCGUUGAACGGAGUUUAUCAUG and GGAUCUUCUCGAUCUAACAAAAAAGACAAAUCUGCCACAAAGCUUGAGAGCAUCUUCGGAUGCAGAGGCGGCAGCUGUCGGUGGCGCGAUAGCGCCAACGUUCUCAACUAUGACACGCAAAACGCGUGCUCCGUUGAAUGGAGUUUGUCAUG cannot be ordered by “polymerase ribozyme fitness (log ratio)” value: at most -4.2 for the first, at most -4.2 for the second.

First: GGAUCUUCUCGAUCUAACAAAAAAGACAAAUCUGCCACAAAGCUUGAGAGCAUCUUCGGAUGCAGAGGCGGCAGCGCUCGGUGGCGCGAUAGCGCCAACGUUCUCAACUAUGACACGCAAAACGCGUGCUCCUUUGAAUGGAGUUUAUCAUG
Second: GGAUCUUCUCGAUCUAACAAAAAAGACAAAUCUGCCACAAAGCUUGAGAGCAUCUUCGGAUGCAGAGGCGGCAGCUUUCGGUGUCGCGAUAGCGCCAACGUUCUCAACUAUGUCACGCAAAUCGCGUGCUCCGUUGAAUGGAGUUUAUCAUG
The “polymerase ribozyme fitness (log ratio)” value of the first is lower: at most -4.2 for the first, -3.77 for the second.

GGAUCUUCUCGAUCUAACAAAAAAGACAAAUCUGCCACAAAGCUUGAGAGCAUCUUCGGAUGCAGAGGCGGCAGCGUUCGGUGGCGCGAUAGCGCCAACGUUCUCAACUAUGACACGCAAAACGCGUGCUCCGUUGAAUGGAGAUUAUCAUG and GGAUCUUCUCGAUCUAACAAAAAAGACAAAUCUGCCACAAAGCUUGAGAGCAUCUUCGGAUGCAGAGGCGGCAGCUUUCGGUGGCGCGAUAGCUCCAACGUUCUCAACUAUGACCCGCAAAACGUGUGCUCCGUUGAAUGGAGUUUUUCAUG cannot be ordered by “polymerase ribozyme fitness (log ratio)” value: at most -4.2 for the first, at most -4.2 for the second.

Going from GGAUCUUCUCGAUCUAACAAAAAAGACAAAUCUGCCACAAAGCUUGAGAGCAUCUUCGGAUGCAGAGGCGGCAGCAUUCGGUGGCGCGAUAUCGCCAACGUUCUCAACUAUGACACGCAAAACGCGUGCUCCGUUGAAUGGAGUUUAUCAUG to GGAUCUUCUCGAUCUAACAAAAAAGACAAAUCUGCCACAAAGCUUGAGAGCAUCUUCGGAUGCAGAGGCGGCAGCUUUCGGUCGCGCGAUAGCGCCAACGUUCUCAACUAUGACACGCAAAACGCGUGCUCCGAUGAAUGGUGUUUAUCAUG, the “polymerase ribozyme fitness (log ratio)” value falls from -2.07 to at most -4.2.

GGAUCUUCUCGAUCUAACAAAAAAGACAAAUCUGCCACAAAGCUUGAGAGCAUCUUCGGAUGCAGAGGCGGCAGCUUUCGGUGGCGCGAUAGCGCCAACGUUCUCAACUAUGACACGCCAAACGCGUGCUCCGUUGAAUGGAGUUUAUCAUG and GGAUCUUCUCGAUCUAACAAAAAAGACAAAUCUGCCACAAAGCUUGAGAGCAUCUUCGGAUGCAGAGGCGGCAGCUUUCGGUGGCGCGAUAGCGCCAACGUUCUCAACUAUGACACGCUAAACGCGUGCUCCGUUGAAUGGAGUUUAUCAUG are within 0.2 log units of each other in “polymerase ribozyme fitness (log ratio)” value: -0.584 for the first, -0.561 for the second.

Compared with GGAUCUUCUCGAUCUAACAAAAAAGACAAAUCUGCCACAAAGCUUGAGAGCAUCUUCGGAUGCAGAGGCGGCAGCUUUUGGUGGAGCGAUACCGCCAACGUUCUCAACUAUGACACGCAAAACGCGUGCUCGGUUGAAUGGAGUUUAUCAUG, GGAUCUUCUCGAUCUAACAAAAAAGACAAAUCUGCCACAAAGCUUGAGAGCAUCUUCGGAUGCAGAGGCGGCAGCUUUCGGUGGCGCGAUAGCGCCAACGUUCUUAACUAUGACAGGCAAAACGCGUGCUCCGUUGAAUGGAGUUUAUCAUG is higher in “polymerase ribozyme fitness (log ratio)” value: at most -4.2 for the first, -1.03 for the second.

Compared with GGAUCUUCUCGAUCUAACAAAAAAGACAAAUCUGCCACAAAGCUUGAGAGCAUCUUCGGAUGCAGAGGCGGCAGCUUCCGGUGGCGCGAUAGCGCCAACGUUCUCAACUAUGACACGCAAAACGCGUGCUCCGUUGGAUGGAGUUUAUCAUG, GGAUCUUCUCGAUCUAACAAAAAAGACAAAUCUGCCACAAAGCUUGAGAGCAUCUUCGGAUGCAGAGGCGGCAGCUUUCGGUAGCGCGAUAGCGCCAACGUUCUCAACUAUGACACGCAAAACGCGUGCUCCGUUGAAUGGAGUUUAUCAUG is higher in “polymerase ribozyme fitness (log ratio)” value: -2.11 for the first, -0.0654 for the second.

Going from GGAUCUUCUCGAUCUAACAAAAAAGACAAAUCUGCCACAAAGCUUGAGAGCAUCUUCGGAUGCAGAGGCGGCAGCAUUCGGUGGCGCGAUAGCGCCAACGUUCUCAACUAUGACACGCAAAACGCGUGCUCCGUUGAAUGCAGUUUAUCAUG to GGAUCUUCUCGAUCUAACAAAAAAGACAAAUCUGCCACAAAGCUUGAGAGCAUCUUCGGAUGCAGAGGCGGCAGCGUUCUGAGGCUCGAUAGCGCCAACGUUCCCAACUAUGACACGCAAAACGCGUGCUCCGUUGAAUGCAGUUUAUCAUG, the “polymerase ribozyme fitness (log ratio)” value falls from -2.39 to at most -4.2.

Going from GGAUCUUCUCGAUCUAACAAAAAAGACAAAUCUGCCACAAAGCUUGAGAGCAUCUUCGGAUGCAGAGGCGGCAGCAUUCGGUGGCGCGAUAGCGCCAACGUUCUCAACUAUGACACGCAAAACGCGAGCUCCGUUGAAUGGAGUUUAUCAUG to GGAUCUUCUCGAUCUAACAAAAAAGACAAAUCUGCCACAAAGCUUGAGAGCAUCUUCGGAUGCAGAGGCGGCAGCUUUCGGUGGGGCGAUAGCGCCAACGUUCUCAACUAUGACACGCAAAACGUGUGCUCCGUUGAAGGGAGUUUAUCAUG, the “polymerase ribozyme fitness (log ratio)” value falls from -3.75 to at most -4.2.

Going from GGAUCUUCUCGAUCUAACAAAAAAGACAAAUCUGCCACAAAGCUUGAGAGCAUCUUCGGAUGCAGAGGCGGCAGCUUUCGGUGGGGCGAUAGCGCCAACGUUCUCAACUAUGACACGCAAUACGCGUGCUCCGUUGAAUGGAGUUUACCAUG to GGAUCUUCUCGAUCUAACAAAAAAGACAAAUCUGCCACAAAGCUUGAGAGCAUCUUCGGAUGCAGAGGCGGCAGCGUUCGGUGGCGCGAUAGAGCAAACGUUCUCAACUAUGACACGCAAAACGCGUGCUCCGUUCAAUGGAGUUUAUCAUG, the “polymerase ribozyme fitness (log ratio)” value falls from -2.83 to at most -4.2.

Going from GGAUCUUCUCGAUCUAACAAAAAAGACAAAUCUGCCACAAAGCUUGAGAGCAUCUUCGGAUGCAGAGGCGGCAGCUUUCGGUGGCGCAAUCGCGCCAACGUUCUCAACUAUGACACGCAAAACGCGUGCUCCGUUGAAUGGAGUUUAUCAUG to GGAUCUUCUCGAUCUAACAAAAAAGACAAAUCUGCCACAAAGCUUGAGAGCAUCUUCGGAUGCAGAGGCGGCAGCAUUCGGUGUCGCGAUAGCGCCAACGUUCUCAACUAUGACACGCAAGGCGCGUGCUCCGUUGAAUGGAGUUAAUCAUG, the “polymerase ribozyme fitness (log ratio)” value rises from at most -4.2 to -3.68.

GGAUCUUCUCGAUCUAACAAAAAAGACAAAUCUGCCACAAAGCUUGAGAGCAUCUUCGGAUGCAGAGGCGGCAGCGUUCGGUUGCGCGAAAGCGCCAACGUUCUCAACUAUGACACGCAAAACGCGUUCUCCGUGGAAUGGAGUUUAUCAUG and GGAUCUUCUCGAUCUAACAAAAAAGACAAAUCUGCCACAAAGCUUGAGAGCAUCUUCGGAUGCAGAGGCGGCAGCAUUCGGCGGCGCGACAGCCCCAACGUUCUCAACUAUGACAUGCAAAACGCGUGCUCCGUUGAAUGGAAUUUAUCAUG cannot be ordered by “polymerase ribozyme fitness (log ratio)” value: at most -4.2 for the first, at most -4.2 for the second.
